Assay results reported in IntAct's records for PubMed 15965486.

target: vps35_mouse Vps35 (UniProt Q9EQH3)

Question: With “Vacuolar protein sorting-associated protein 29 (Mus musculus) (from UniProt Q9QZ88-1) V90D” as the substance, how does the “effect of a mutation on the interaction” value read?
Answer: decreasing interaction strength

Question: “Vacuolar protein sorting-associated protein 29 (Mus musculus) (from UniProt Q9QZ88-1) I91S” was tested. Which “effect of a mutation on the interaction” value did it give?
Answer: disrupting interaction strength

Question: Which “effect of a mutation on the interaction” value does the source give for “Vacuolar protein sorting-associated protein 29 (Mus musculus) (from UniProt Q9QZ88-1) N39D” here?
Answer: decreasing interaction strength
